Reference: patent publication US20160208274

Target: fibrin (formed in the agarose plate from fibrinogen and thrombin)

B1: recombinant Desmodus rotundus salivary plasminogen activator alpha1 (DSPAα1) from transgenic T3 tobacco seeds, with C-terminal 6xHis tag and KDEL (protein)
chain: AYGVACKDEITQMTYRRQESWLRPEVRSKRVEHCQCDRGQARCHTVPVNSCSEPRCFNGGTCWQAVYFSDFVCQCPAGYTGKRCEVDTRATCYEGQGVTYRGTWSTAESRVECINWNSSLLTRRTYNGRMPDAFNLGLGNHNYCRNPNGAPKPWCYVIKAGKFTSESCSVPVCSKATCGLRKYKEPQLHSTGGLFTDITSHPWQAAIFAQNRRSSGERFLCGGILISSCWVLTAAHCFQESYLPDQLKVVLGRTYRVKPGEEEQTFKVKKYIVHKEFDDDTYNNDIALLQLKSDSPQCAQESDSVRAICLPEANLQLPDWTECELSGYGKHKSSSPFYSEQLKEGHVRLYPSSRCAPKFLFNKTVTNNMLCAGDTRSGEIYPNVHDACQGDSGGPLVCMNDNHMTLLGIISWGVGCGEKDVPGVYTKVTNYLGWIRDNMHLHHHHHHKDEL
B1 was tested, and the “fibrin plate assay (fibrin degradation; lytic area on the fibrin plate)” value was “recombinant t-PA from T1 seeds and DSPAα1 from T3 homologous seeds can degrade fibrin”.

B2: recombinant human tissue plasminogen activator (t-PA) from transgenic T1 tobacco seeds, with C-terminal 6xHis tag and KDEL (protein)
chain: SYQVICRDEKTQMIYQQHQSWLRPVLRSNRVEYCWCNSGRAQCHSVPVKSCSEPRCFNGGTCQQALYFSYFVCQCPEGFAGKCCEIDTRATCYEDQGISYRGTWSTAESGAECTNWNSSALAQKPYSGRRPDAIRLGLGNHNYCRNPDRDSKPWCYVFKAGKYSSEFCSTPACSEGNSDCYFGNGSAYRGTHSLTESGASCLPWNSMILIGKVYTAQNPSAQALGLGKHNYCRNPDGDAKPWCHVLKNRRLTWEYCDVPSCSTCGLRQYSQPQFRIKGGLFADIASHPWQAAIFAKHRRSPGERFLCGGILISSCWILSAAHCFQERFPPHHLTVILGRTYRVVPGEEEQKFEVEKYIVHKEFDDDTYDNDIALLQLKSDSSRCAQESSVVRTVCLPPADLQLPDWTECELSGYGKHEALSPFYSERLKEAHVRLYPSSRCTSQHLLNRTVTDNMLCAGDTRSGGPQANLHDACQGDSGGPLVCLNDGRMTLVGIISWGLGCGQKDVPGVYTKVTNYLDWIRDNMRPHHHHHHKDEL
With B2 the “fibrin plate assay (fibrin degradation; lytic area on the fibrin plate)” value was “recombinant t-PA from T1 seeds and DSPAα1 from T3 homologous seeds can degrade fibrin”.
